Substitutions are numbered along the chain they refer to.
B1: TR01H084-E22Hh/none-Hi-Kn010G3/L0011-k0 (antibody, human IgG1, kappa, L234A L235A, N297A)
heavy: QVQLVESGGGVVQPGGSLRLSCAASGFTFSNAWMHWVRQAPGKGLEWVAQIKDKSQNYATYYAESVKGRFTISRADSKNSIYLQMNSLKTEDTAVYYCRYVHYAAGYGVDIWGQGTTVTVSSASTKGPSVFPLAPSSKSTSGGTAALGCLVKDYFPEPVTVSWNSGALTSGVHTFPAVLQSSGLYSLSSVVTVPSSSLGTQTYICNVNHKPSNTKVDKKVEPKSCDKTHTCPPCPAPEAAGGPSVFLFPPKPKDTLMISRTPEVTCVVVDVSHEDPEVKFNWYVDGVEVHNAKTKPREEQYASTYRVVSVLTVLHQDWLNGKEYKCKVSNKALPAPIEKTISKAKGQPREPQVYTLPPSRCELTKNQVSLSCAVKGFYPSDIAVEWESNGQPENNYKTTPPVLDSDGSFFLVSKLTVDKSRWQQGNVFSCSVMHEALHNHYTQKSLSLSPDYKDDDDK
chain: EPKSSDKTHTCPPCPAPELLGGPSVFLFPPKPKDTLMISRTPEVTCVVVDVSHEDPEVKFNWYVDGVEVHNAKTKPREEQYNSTYRVVSVLTVLHQDWLNGKEYKCKVSNKALPAPIEKTISKAKGQPREPQVCTLPPSRDELTKNQVSLWCLVKGFYPSDIAVEWESNGQPENNYKTTPPVLDSDGSFFLYSKLTVDKSRWQQGNVFSCSVMHEALHNRYTQKSLSLSP
light: DIVMTQSPLSLPVTPGEPASISCRSSQPLVHSNRNTYLHWYQQKPGQAPRLLIYKVSNRFSGVPDRFSGSGSGTDFTLKISRVEAEDVGVYYCGQGTQVPYTFGQGTKLEIKRTVAAPSVFIFPPSDEQLKSGTASVVCLLNNFYPREAKVQWKVDNALQSGNSQESVTEQDSKDSTYSLSSTLTLSKADYEKHKVYACEVTHQGLSSPVTKSFNRGEC
notes: single-arm
B2: TR01H084-E22Hh/none-Hi-Kn010G3/L0201-k0 (antibody, human IgG1, kappa, L234A L235A, N297A)
heavy: B1 heavy
chain: B1 chain
light: B1 light with L29P
notes: single-arm
B3: TR01H084-E22Hh/none-Hi-Kn010G3/L0262-k0 (antibody, human IgG1, kappa, L234A L235A, N297A)
heavy: B1 heavy
chain: B1 chain
light: B1 light with L29P, G94A
notes: single-arm
B4: TR01H084-E22Hh/none-Hi-Kn010G3/L0270-k0 (antibody, human IgG1, kappa, L234A L235A, N297A)
heavy: B1 heavy
chain: B1 chain
light: B1 light with P28S, N35Q
notes: single-arm
B5: TR01H084-E22Hh/none-Hi-Kn010G3/L0271-k0 (antibody, human IgG1, kappa, L234A L235A, N297A)
heavy: B1 heavy
chain: B1 chain
light: B1 light with L29P, N35Q
notes: single-arm
B6: TR01H084-E22Hh/none-Hi-Kn010G3/L0272-k0 (antibody, human IgG1, kappa, L234A L235A, N297A)
heavy: B1 heavy
chain: B1 chain
light: B1 light with N35Q
notes: single-arm
B7: TR01H100-E22Hh/none-Hi-Kn010G3/L0011-k0 (antibody, human IgG1, kappa, L234A L235A, N297A)
heavy: B1 heavy with V11L, G16R, T60S, A75D, I81L, I111A
chain: B1 chain
light: B1 light
notes: single-arm
B8: hCE115HA-E22Hh//-Hi-Kn010G3/L0000-k0 (antibody, human IgG1, kappa, L234A L235A, N297A)
heavy: B1 heavy with G16R, D53A, Q56N, A75D, I81L, A104G, G106Y, I111A
chain: B1 chain
light: B1 light with P28S
notes: single-arm
B9: CE115HA179-G1dh//-Hi-Kn010G3/L0000-k0 (antibody, human IgG1, kappa)
heavy: not shown
chain: B1 chain
light: B1 light with P28S
notes: single-arm
B10: CE115HA177-G1dh//-Hi-Kn010G3/L0000-k0 (antibody, human IgG1, kappa)
heavy: not shown
chain: B1 chain
light: B1 light with P28S
notes: single-arm
B11: CE115HA178-G1dh//-Hi-Kn010G3/L0000-k0 (antibody, human IgG1, kappa)
heavy: not shown
chain: B1 chain
light: B1 light with P28S
notes: single-arm
B12: CE115HA180-G1dh//-Hi-Kn010G3/L0000-k0 (antibody, human IgG1, kappa)
heavy: not shown
chain: B1 chain
light: B1 light with P28S
notes: single-arm
B13: hCE115HA-G1dh//-Hi-Kn010G3/L0000-k0 (antibody, human IgG1, kappa)
heavy: not shown
chain: B1 chain
light: B1 light with P28S
notes: single-arm
B14: rCE115H-G1dh//-Hi-Kn010G3/L0000-k0 (antibody, human IgG1, kappa)
heavy: not shown
chain: B1 chain
light: B1 light with P28S
notes: single-arm
B15: TR01H040-E22Hh/none-Hi-Kn010G3/L0000vk1-k0 (antibody, human IgG1, kappa, L234A L235A, N297A)
heavy: B1 heavy with V11L, G16R, A104S, G106S, I111A
chain: B1 chain
light: DIQMTQSPSSLSASVGDRVTITCRSSQSLVHSNRNTYLHWYQQKPGKAPKLLIYKVSNRFSGVPSRFSGSGSGTDFTFTISSLQPEDIATYYCGQGTQVPYTFGQGTKVEIKRTVAAPSVFIFPPSDEQLKSGTASVVCLLNNFYPREAKVQWKVDNALQSGNSQESVTEQDSKDSTYSLSSTLTLSKADYEKHKVYACEVTHQGLSSPVTKSFNRGEC
notes: single-arm
B16: TR01H080-E22Hh/none-Hi-Kn010G3/L0000-k0 (antibody, human IgG1, kappa, L234A L235A, N297A)
heavy: QVQLVESGGGLVQPGRSLRLSCAASGFTFSNAWMHWVRQAPGKGLEWVAQIKDKSNNYATYYAESVKGRFTISRADSKNSIYLQMNSLKTEDTAVYYCRYVHYAAVRRRLSSYGVDIWGQGTTVTVSSASTKGPSVFPLAPSSKSTSGGTAALGCLVKDYFPEPVTVSWNSGALTSGVHTFPAVLQSSGLYSLSSVVTVPSSSLGTQTYICNVNHKPSNTKVDKKVEPKSCDKTHTCPPCPAPEAAGGPSVFLFPPKPKDTLMISRTPEVTCVVVDVSHEDPEVKFNWYVDGVEVHNAKTKPREEQYASTYRVVSVLTVLHQDWLNGKEYKCKVSNKALPAPIEKTISKAKGQPREPQVYTLPPSRCELTKNQVSLSCAVKGFYPSDIAVEWESNGQPENNYKTTPPVLDSDGSFFLVSKLTVDKSRWQQGNVFSCSVMHEALHNHYTQKSLSLSPDYKDDDDK
chain: B1 chain
light: B1 light with P28S
notes: single-arm
B17: TR01H079-E22Hh/none-Hi-Kn010G3/L0000-k0 (antibody, human IgG1, kappa, L234A L235A, N297A)
heavy: B16 heavy with V106A, R107E, R108M, R109V, L110R, S111D
chain: B1 chain
light: B1 light with P28S
notes: single-arm
B18: TR01H077-E22Hh/none-Hi-Kn010G3/L0200-k0 (antibody, human IgG1, kappa, L234A L235A, N297A)
heavy: QVQLVESGGGLVQPGRSLRLSCAASGFTFSNAWMHWVRQAPGKGLEWVAQIKDKSNNYATYYAESVKGRFTISRADSKNSIYLQMNSLKTEDTAVYYCRYVHYAAAEMVRDDIWGQGTTVTVSSASTKGPSVFPLAPSSKSTSGGTAALGCLVKDYFPEPVTVSWNSGALTSGVHTFPAVLQSSGLYSLSSVVTVPSSSLGTQTYICNVNHKPSNTKVDKKVEPKSCDKTHTCPPCPAPEAAGGPSVFLFPPKPKDTLMISRTPEVTCVVVDVSHEDPEVKFNWYVDGVEVHNAKTKPREEQYASTYRVVSVLTVLHQDWLNGKEYKCKVSNKALPAPIEKTISKAKGQPREPQVYTLPPSRCELTKNQVSLSCAVKGFYPSDIAVEWESNGQPENNYKTTPPVLDSDGSFFLVSKLTVDKSRWQQGNVFSCSVMHEALHNHYTQKSLSLSPDYKDDDDK
chain: B1 chain
light: B1 light with S25P, P28S, L29P
notes: single-arm
B19: TR01H067-E22Hh/none-Hi-Kn010G3/L0000-k0 (antibody, human IgG1, kappa, L234A L235A, N297A)
heavy: B1 heavy with V11L, G16R, A75D, I81L, G106S, I111A
chain: B1 chain
light: B1 light with P28S
notes: one-arm antibody (single Fab) with Fab-less hinge-Fc chain Hi-Kn010G3
B20: CE115HA124-E22Hh//-Hi-Kn010G3/L0000-k0 (antibody, human IgG1, kappa, L234A L235A, N297A)
heavy: B1 heavy with G16R, D53A, K54L, Q56N, A75D, I81L, A104G, G106Y, I111A
chain: B1 chain
light: B1 light with P28S
notes: one-arm antibody (single Fab) with Fab-less hinge-Fc chain Hi-Kn010G3; label '//-Hi-Kn010G3' read as none-Hi-Kn010G3
B21: TR01H004-E22Hh//-Hi-Kn010G3/L0000-k0 (antibody, human IgG1, kappa, L234A L235A, N297A)
heavy: B1 heavy with G16R, D53A, Q56N, A75D, I81L, Y100R, A104Y, A105Y, G106Y, I111A
chain: B1 chain
light: B1 light with P28S
notes: as for B20
B22: TR01H008-E22Hh/none-Hi-Kn010G3/L0000-k0 (antibody, human IgG1, kappa, L234A L235A, N297A)
heavy: B1 heavy with V11L, G16R, D53G, Q56N, A104G, G106Y
chain: B1 chain
light: B1 light with P28S
notes: as for B19
B23: TR01H009-E22Hh/none-Hi-Kn010G3/L0000-k0 (antibody, human IgG1, kappa, L234A L235A, N297A)
heavy: B1 heavy with V11L, G16R, D53A, Q56N, E64P, A104G, G106Y
chain: B1 chain
light: B1 light with P28S
notes: as for B19
B24: TR01H010-E22Hh/none-Hi-Kn010G3/L0000-k0 (antibody, human IgG1, kappa, L234A L235A, N297A)
heavy: B1 heavy with V11L, G16R, D53A, Q56N, A104S, G106Y
chain: B1 chain
light: B1 light with P28S
notes: as for B19

Biological target: T1, soluble human CD3ε chain (human, UniProt P07766 23-126, limits assumed)
T1 construct: the text says soluble human CD3ε chain; also called human CD3 epsilon chain
Assay: SPR (Biacore)
T1 sequence (P07766 23-126 limits assumed): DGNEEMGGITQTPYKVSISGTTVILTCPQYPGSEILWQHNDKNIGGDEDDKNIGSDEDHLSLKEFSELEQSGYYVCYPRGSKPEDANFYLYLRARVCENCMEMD

| Binder | Kd [nM] |
| --- | --- |
| B1 | 19.8 |
| B2 | 16.5 |
| B3 | 8.51 |
| B4 | 27.6 |
| B5 | 27.6 |
| B6 | 31 |
| B7 | 62.5 |
| B8 | 143 |
| B9 | 8.35 |
| B10 | 35.5 |
| B11 | 10.9 |
| B12 | 16.8 |
| B13 | 65 |
| B14 | 57.6 |
| B15 | 46.9 |
| B16 | 3.25 |
| B17 | 50.5 |
| B18 | 6.12 |

Biological target: T2, soluble human CD3ε chain (human, UniProt P07766 23-126, limits assumed)
T2 construct: also called human CD3 epsilon chain
Assay: SPR (Biacore), soluble human CD3ε chain
T2 sequence (P07766 23-126 limits assumed): as above

| Binder | Kd [nM] |
| --- | --- |
| B19 | 71.5 |
| B20 | 143 |
| B21 | 135 |
| B22 | 42.2 |
| B23 | 31.5 |
| B24 | 37.3 |

From patent US20210388110A1 (published 2021)
